What was measured:
[1] = target: T1, amphyphisin SH3 (AMPH_HUMAN), P49418; experiment: SPOT array
T1 chain: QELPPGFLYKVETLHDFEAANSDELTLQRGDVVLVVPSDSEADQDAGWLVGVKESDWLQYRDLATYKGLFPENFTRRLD

[2] = target: endophilin SH3 (SH3G2_HUMAN), Q99962; experiment: SPOT array

B1: Q14739 82-96 (peptide)
chain: RSRSPGRPPKSARR
[1]
  normalised SPOT signal, Boehringer light units (BLU); mean over the file's lines of this peptide: 154
[2]
  normalised SPOT signal, Boehringer light units (BLU); mean over the file's lines of this peptide: 3690

B2: Q92560 382-396 (peptide)
chain: RSRVPVRPPQQYSD
[1]
  normalised SPOT signal, Boehringer light units (BLU); mean over the file's lines of this peptide: 133
[2]
  normalised SPOT signal, Boehringer light units (BLU); mean over the file's lines of this peptide: 831

B3: Q9NPP7 72-86 (peptide)
chain: RSSGPERPPHGLPL
[1]
  normalised SPOT signal, Boehringer light units (BLU); mean over the file's lines of this peptide: 39.9
[2]
  normalised SPOT signal, Boehringer light units (BLU); mean over the file's lines of this peptide: 752

B4: Q9NRK9 487-500 (peptide)
chain: RSWWPQRPGRWLSR
[1]
  normalised SPOT signal, Boehringer light units (BLU); mean over the file's lines of this peptide: 3180
[2]
  normalised SPOT signal, Boehringer light units (BLU); mean over the file's lines of this peptide: 558

B5: Q9NYZ2 96-109 (peptide)
chain: RTEGFWRPLRGVNV
[1]
  normalised SPOT signal, Boehringer light units (BLU); mean over the file's lines of this peptide: 952
[2]
  normalised SPOT signal, Boehringer light units (BLU); mean over the file's lines of this peptide: 107

B6: Q96CC9 51-64 (peptide)
chain: RTKRFKRPQFSPTG
[1]
  normalised SPOT signal, Boehringer light units (BLU); mean over the file's lines of this peptide: 33.7
[2]
  normalised SPOT signal, Boehringer light units (BLU); mean over the file's lines of this peptide: 12.5

B7: Q9P1Y6 400-413 (peptide)
chain: RTLGLRRPVHSSSI
[1]
  normalised SPOT signal, Boehringer light units (BLU); mean over the file's lines of this peptide: 20.6
[2]
  normalised SPOT signal, Boehringer light units (BLU); mean over the file's lines of this peptide: 49.2

B8: Q9GZW5 220-233 (peptide)
chain: RTPAPRRPLQRRRP
[1]
  normalised SPOT signal, Boehringer light units (BLU); mean over the file's lines of this peptide: 789
[2]
  normalised SPOT signal, Boehringer light units (BLU); mean over the file's lines of this peptide: 12000

B9: O95473 15-28 (peptide)
chain: AVQFLRRPKTITRV
[1]
  normalised SPOT signal, Boehringer light units (BLU); mean over the file's lines of this peptide: 15.3
[2]
  normalised SPOT signal, Boehringer light units (BLU); mean over the file's lines of this peptide: 117

B10: Q9H0S3 22-35 (peptide)
chain: RTPTPDRPPRSAWG
[1]
  normalised SPOT signal, Boehringer light units (BLU); mean over the file's lines of this peptide: 2030
[2]
  normalised SPOT signal, Boehringer light units (BLU); mean over the file's lines of this peptide: 395

B11: Q9P2T0 193-206 (peptide)
chain: RVEELSRPKRFYLE
[1]
  normalised SPOT signal, Boehringer light units (BLU); mean over the file's lines of this peptide: 225
[2]
  normalised SPOT signal, Boehringer light units (BLU); mean over the file's lines of this peptide: 210

B12: Q9UQ05 500-513 (peptide)
chain: RVHRLPRPLKQRML
[1]
  normalised SPOT signal, Boehringer light units (BLU); mean over the file's lines of this peptide: 165
[2]
  normalised SPOT signal, Boehringer light units (BLU); mean over the file's lines of this peptide: 121

B13: Q10466 5697-5710 (peptide)
chain: RVIGLLRPLKDVTV
[1]
  normalised SPOT signal, Boehringer light units (BLU); mean over the file's lines of this peptide: 205
[2]
  normalised SPOT signal, Boehringer light units (BLU); mean over the file's lines of this peptide: 261

B14: O00763 939-952 (peptide)
chain: RVKYIKRPGAVLEA
[1]
  normalised SPOT signal, Boehringer light units (BLU); mean over the file's lines of this peptide: 27.1
[2]
  normalised SPOT signal, Boehringer light units (BLU); mean over the file's lines of this peptide: 36.2

B15: Q9NV38 3-16 (peptide)
chain: RVLSLLRPWRPLRA
[1]
  normalised SPOT signal, Boehringer light units (BLU); mean over the file's lines of this peptide: 1430
[2]
  normalised SPOT signal, Boehringer light units (BLU); mean over the file's lines of this peptide: 366

B16: Q96DQ6 175-188 (peptide)
chain: RVLHLRRPGGPPHV
[1]
  normalised SPOT signal, Boehringer light units (BLU); mean over the file's lines of this peptide: 21.6
[2]
  normalised SPOT signal, Boehringer light units (BLU); mean over the file's lines of this peptide: 55.3

B17: Q07912 741-754 (peptide)
chain: RVPIPPRPTRPHVQ
[1]
  normalised SPOT signal, Boehringer light units (BLU); mean over the file's lines of this peptide: 9630
[2]
  normalised SPOT signal, Boehringer light units (BLU); mean over the file's lines of this peptide: 19700

B18: Q9UD05 286-299 (peptide)
chain: RVPIPPRPVKPDYR
[1]
  normalised SPOT signal, Boehringer light units (BLU); mean over the file's lines of this peptide: 646
[2]
  normalised SPOT signal, Boehringer light units (BLU); mean over the file's lines of this peptide: 6030

B19: P01814 35-48 (peptide)
chain: RVSWIRRPPGKALE
[1]
  normalised SPOT signal, Boehringer light units (BLU); mean over the file's lines of this peptide: 15
[2]
  normalised SPOT signal, Boehringer light units (BLU); mean over the file's lines of this peptide: 326

B20: Q92817 837-850 (peptide)
chain: AVSAPKRPRVAPLQ
[1]
  normalised SPOT signal, Boehringer light units (BLU); mean over the file's lines of this peptide: 59
[2]
  normalised SPOT signal, Boehringer light units (BLU); mean over the file's lines of this peptide: 240

B21: Q92536 412-425 (peptide)
chain: RWKEPKRPRPLKLS
[1]
  normalised SPOT signal, Boehringer light units (BLU); mean over the file's lines of this peptide: 56.9
[2]
  normalised SPOT signal, Boehringer light units (BLU); mean over the file's lines of this peptide: 419

B22: O43193 136-149 (peptide)
chain: RYLAISRPLRARVL
[1]
  normalised SPOT signal, Boehringer light units (BLU); mean over the file's lines of this peptide: 1320
[2]
  normalised SPOT signal, Boehringer light units (BLU); mean over the file's lines of this peptide: 943

B23: Q99412 18-31 (peptide)
chain: RYLGITRPHKMLTT
[1]
  normalised SPOT signal, Boehringer light units (BLU); mean over the file's lines of this peptide: 102
[2]
  normalised SPOT signal, Boehringer light units (BLU); mean over the file's lines of this peptide: 231

B24: Q9NP17 122-135 (peptide)
chain: RYLILKRPGFQEHD
[1]
  normalised SPOT signal, Boehringer light units (BLU); mean over the file's lines of this peptide: 23.9
[2]
  normalised SPOT signal, Boehringer light units (BLU); mean over the file's lines of this peptide: 228

B25: P21918 138-151 (peptide)
chain: RYWAISRPFRYKRK
[1]
  normalised SPOT signal, Boehringer light units (BLU); mean over the file's lines of this peptide: 1070
[2]
  normalised SPOT signal, Boehringer light units (BLU); mean over the file's lines of this peptide: 417

B26: P21453 335-348 (peptide)
chain: SAGKFKRPIIAGME
[1]
  normalised SPOT signal, Boehringer light units (BLU); mean over the file's lines of this peptide: 42.5
[2]
  normalised SPOT signal, Boehringer light units (BLU); mean over the file's lines of this peptide: 46.1

B27: Q14764 501-514 (peptide)
chain: SAGRPKRPHARRAL
[1]
  normalised SPOT signal, Boehringer light units (BLU); mean over the file's lines of this peptide: 24.8
[2]
  normalised SPOT signal, Boehringer light units (BLU); mean over the file's lines of this peptide: 702

B28: Q9UGB8 794-807 (peptide)
chain: SAHTPGRPPRVTKD
[1]
  normalised SPOT signal, Boehringer light units (BLU); mean over the file's lines of this peptide: 1950
[2]
  normalised SPOT signal, Boehringer light units (BLU); mean over the file's lines of this peptide: 268

B29: Q9NPN8 118-131 (peptide)
chain: SAKELRRPPPRSPQ
[1]
  normalised SPOT signal, Boehringer light units (BLU); mean over the file's lines of this peptide: 33.8
[2]
  normalised SPOT signal, Boehringer light units (BLU); mean over the file's lines of this peptide: 116

B30: Q9UIG2 1726-1739 (peptide)
chain: SALRPKRPETPKQT
[1]
  normalised SPOT signal, Boehringer light units (BLU); mean over the file's lines of this peptide: 588
[2]
  normalised SPOT signal, Boehringer light units (BLU); mean over the file's lines of this peptide: 723

B31: Q8WU34 71-84 (peptide)
chain: AVWSPRRPTATRDP
[1]
  normalised SPOT signal, Boehringer light units (BLU); mean over the file's lines of this peptide: 36.2
[2]
  normalised SPOT signal, Boehringer light units (BLU); mean over the file's lines of this peptide: 97.9

B32: Q96DL6 316-329 (peptide)
chain: SAPGPRRPAPALLA
[1]
  normalised SPOT signal, Boehringer light units (BLU); mean over the file's lines of this peptide: 412
[2]
  normalised SPOT signal, Boehringer light units (BLU); mean over the file's lines of this peptide: 3420

B33: Q96BQ9 4-18 (peptide)
chain: SAPPPPRPPEEPAP
[1]
  normalised SPOT signal, Boehringer light units (BLU); mean over the file's lines of this peptide: 85.5
[2]
  normalised SPOT signal, Boehringer light units (BLU); mean over the file's lines of this peptide: 65.5

B34: Q9UHD4 30-43 (peptide)
chain: SAPPPQRPFRVSDH
[1]
  normalised SPOT signal, Boehringer light units (BLU); mean over the file's lines of this peptide: 4530
[2]
  normalised SPOT signal, Boehringer light units (BLU); mean over the file's lines of this peptide: 5270

B35: Q9NPI5 198-211 (peptide)
chain: SAPSPARPARTQGP
[1]
  normalised SPOT signal, Boehringer light units (BLU); mean over the file's lines of this peptide: 4310
[2]
  normalised SPOT signal, Boehringer light units (BLU); mean over the file's lines of this peptide: 4590

B36: O76074 102-115 (peptide)
chain: SASEFDRPLRPIVV
[1]
  normalised SPOT signal, Boehringer light units (BLU); mean over the file's lines of this peptide: 131
[2]
  normalised SPOT signal, Boehringer light units (BLU); mean over the file's lines of this peptide: 54

B37: Q99754 28-41 (peptide)
chain: SASGIKRPMASEVP
[1]
  normalised SPOT signal, Boehringer light units (BLU); mean over the file's lines of this peptide: 17.6
[2]
  normalised SPOT signal, Boehringer light units (BLU); mean over the file's lines of this peptide: 81.2

B38: Q06055 26-39 (peptide)
chain: SAVVLKRPEILTDE
[1]
  normalised SPOT signal, Boehringer light units (BLU); mean over the file's lines of this peptide: 42.7
[2]
  normalised SPOT signal, Boehringer light units (BLU); mean over the file's lines of this peptide: 38.4

B39: Q12882 910-923 (peptide)
chain: SSFIPKRPIPTIKD
[1]
  normalised SPOT signal, Boehringer light units (BLU); mean over the file's lines of this peptide: 17.6
[2]
  normalised SPOT signal, Boehringer light units (BLU); mean over the file's lines of this peptide: 514

B40: P09529 57-70 (peptide)
chain: SSGGFRRPEELGRV
[1]
  normalised SPOT signal, Boehringer light units (BLU); mean over the file's lines of this peptide: 41.8
[2]
  normalised SPOT signal, Boehringer light units (BLU); mean over the file's lines of this peptide: 11.4

B41: Q13370 310-323 (peptide)
chain: SSKIFRRPSLPSIS
[1]
  normalised SPOT signal, Boehringer light units (BLU); mean over the file's lines of this peptide: 12.2
[2]
  normalised SPOT signal, Boehringer light units (BLU); mean over the file's lines of this peptide: 40.4

B42: Q9Y3X0 319-333 (peptide)
chain: AWARPPKPPTFGEF
[1]
  normalised SPOT signal, Boehringer light units (BLU); mean over the file's lines of this peptide: 21.8
[2]
  normalised SPOT signal, Boehringer light units (BLU); mean over the file's lines of this peptide: 716
